Consider one protein from patent US20040038340.

The target of data set [1] is T1, P-Ser-HPr(His)6 from B. subtilis, P08877.
T1 chain: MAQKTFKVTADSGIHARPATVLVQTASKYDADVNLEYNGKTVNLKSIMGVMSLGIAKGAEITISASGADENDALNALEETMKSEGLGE

Data set [2] deals with T2, HPr(His)6 from B. subtilis, P08877.
T2 chain: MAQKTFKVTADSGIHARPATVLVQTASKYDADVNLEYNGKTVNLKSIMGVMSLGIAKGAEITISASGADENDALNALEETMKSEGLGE

B1: His-tagged L. casei HprK (protein)
chain: MADSVTVRQLVKATKLEVYSGEEYLDQRQVVLSDISRPGLELTGYFNYYPHERIQLFGRTEISFARNMSSEERLLILKRMATEDTPAFLVSRGLEAPAEMITAATAAHIPVLGSRLPTTRLSSLITEYLDSQLAERRSMHGVLVDIYGLGVLITGDSGVGKSETALELVQRGHRLIADDRVDVYQQDEQTIVGAAPPILSHLLEIRGLGIIDVMNLFGAGAVREDTTISLIVHLENWTPDKTFDRLGSGEQTQLIFDVPVPKITVPVKVGRNLAIIIEVAAMNFRAKSMGYDATKTFEKNLNHLIEHNEETDQNSSGDK
With B1, the “P-Ser-HPr phosphatase activity (non-denaturing gel)” value in data set [1] is “HprK of L. casei was indeed found to be bifunctional”. Also, the “HPr kinase activity (ATP-dependent HPr phosphorylation, non-denaturing gel)” value in data set [2] was “HprK of L. casei was indeed found to be bifunctional”.
